Results published in the DeepSol protein solubility set.

Test: soluble on expression in E. coli; label from the status in PepcDB or PDB records

| Sequence | soluble on expression in E. coli |
| --- | --- |
| MSLKFVGIVGSNAEQSYNRMLLEFIRKNFKTKFELEVLEIDDIPMFNQDQNWEESFQLRLLNNKITRADGVIIATPEHNHTITAALKSVLEWLSFAVHPLENKPVMIVGASYYDQGTSRAQIHLRKILDAPGVNAYTLPGNEFLLGKAKEAFDDNGNIINPGTVQFLETCLDNFIKYVGVVSSLRKPKAIESEDLYCQGQIDTTITGIDPDDPDWLDKAAEKVNAVEGDAYVKLDNGLLTVNQLNMFLNAMPFELTYADDNNQFLYYNNNHPDPDTMLGKRVREQVGNRMATVHGSLPPARMKNVEWVIGTLRNGNQEYVRTVVPGTPPEVINTHNYQAMYYPDGSYAGINEIIFNFKPWLDWYLQTTGQRLVGGTTAAPGASAVDATSSASTSTGDAPVDQATDATSGASEHEGHHHHHH | soluble |
| KIIEEFIDSLFSGVVETSETKQLKADLLANAEDRYEDLLSQGKSENEAIGTIISEFGTIDELMEELNLENKQVDEPNDS | not soluble |
| MTVASTLGLNETQYATDDCLEEIINNTRAVRQDSEKTRFKLQINNFLAEVASGSLVINSDLIGSIEKRIADIDKLMSEQLSLIMHATEFQKIESAWTGLYKLVQASVTENVKYTVLHCTKKELLKDFKSASDFDQSVLFKNIYESEYGTFGGTPYSAFVGDFYFDNTPQDIDLLEHISHVAASAHAPFLSAIAPGMLSMSSFSELPYPRDLAKLFETTDYARWRSFRQTDDSRYVGLTLPQSLGRIPYGMKTIPAETFNFEEHISEDNSGKDYLWVNTAFELACRIVDAFEEYGWCAAIRGVEGGGLVKSLPAYNYVSHTGERLLQCPTEVAISDRREKELSDLGFIPLVYCKGTDFAAFFAVQSVNKARLYNTDQANANAKLSSQLQYILATSRFAHYLKVIVRDKVGSFMSRTECQTYLQNWIMQYVVASDNAGQETKARYPLREASVEVIEVPGSPGNYRAIAWIKPHFQLEGLSMSLRLVADLPSSVS | not soluble |
| SLAHIVTLNTPYREDWLTQLADVVTDPDELLRLLNIDADEKLLAGRSAKKLFALRVPRSFIDRMEKGNPDDPLLRQVLTSQDEFVVASGFSTDPLEEQHSVVPGLLHKYHNRALLLVKGGCAVNCRYCFRRHFPYAENQGNKRNWQTALEYVAAHPELDEMIFSGGDPLMAKEHELDWLLTQLEAIPHIKRLRIHSRLPIVIPARITEALVERFARSTLQILLVNHINHANEVDETFRQAMAKLRRVGVTLLNQSVLLRGVNDNAQTLANLSNALFDAGVMPYYLHVLDKVQGAAHFMVSDDEARQIMRELLTLVSGYLVPKLAREIGGEPSKTPLDLQLRQQ | not soluble |
| MMLCFQEVALNGGNILSKFTERLLTILYPPICPGCKQRVSAYGTICSECWKDLQFITKPYCPVMGVPFVYDMGDGFLSGEALQNSLPFSRVRSVIVHKGVAQSLVTRLKYGDHVELASFMANWMVSAGREIVDDCDIIISVPLHFRRFLKRRYNQSAELARYIARVQKKEFKPGWLVRCRHTRPQVNLSARERKLNVLNAFEVPRKVKKYLKGRSILLIDDVFTTGATVTAAAATLKRAGARQVDVLTFSRVLKEASIFPNS | not soluble |
| MVQHQMFDPGVADLLDTDILTSPSKRKRKLKIDDISTSDRSELEDYIVLENVYRMFGITFFPLVDPIDLKIKDASGEIFVDREMLGIRLEVFSERTSQFEKPHYVLLKKRIKSNSWFLFKHTIPSFIDVQGIFDDTNGGLVISHDDAYLFAKRVFLQLVEVQKRRQIFKDLEAKKIIHDLDLDLESSMVSFFVKDIKVELFVKQNEIVSCSILDDIHDFSQNNKSKWEIALLGSLDDLELKLNHSFATIFK | not soluble |
| MREEVKTVIKVKTVGDVPAIVSARKSITEGKVKDAIISGYRDVKNDYMRYFGIQQAPDEGERLFIVNTLKGLGIDLPEESIVDGKFIIDRISGMDLASTDPKVACFVKIAEFYLKYYEKAKYSDSVIEDDGEIIERLTGIYNYMDITKLYFKGDDAGVGT | not soluble |
| MGSDKIHHHHHHMDIKQLKFLIALDETRHFGQAAARCNITQPTLSMRLRNLEEELGLPLVNRGQRFEGFTAPGERVLAWARTVLAAYDGLQAEAAACRGHLVGTLRLGVVPMSSFDPLPLLHRLHQLHPNLRFELSSLSSEQVLEQLASNRIDLGVSYLERLDSERFDSLTLDETRMGLLYDRRHFTFGDTPLSWADLVELPLGTLTSGMHFRQSIDHNFHSRGLQPNPLIQTDAVHQLLQAVHGGFCCAIMPLDGGLETLTEHLHLHPIADACTLARLGLIMRRSAPRSALAEACFALVAEIPR | not soluble |
| MGSDKIHHHHHHMTTARRQLIDAESTPFYHVINRCVRRAFLCGEDALSGRSYEHRRDWIVDKIKQLSSVFCIDVCAYAVMSNHYHLVLKINLATQKRLSHFEVIERWTQLFFGHPVAAKFLKGDSLEEGERLLLDSLIGEWQERLGSISWFMRCLNEEIARKANREDGCKGVFWEGRFKSQALLDEQALLACMMYVDLNPIRAGIADSLQGSDYTSIQERIEELASPQSAPVALKPLLAFDGAAIATEQCGIPFHFADYLELIDWTGRAVREDKRGFIATTRPKLLAELGISDDAWITSAKEFRRQYSGISGRWDAMCAMKAKCGGKWCRGKQQSASIHPD | not soluble |
| MITHAQTILCLDLGSKTGWAICGADGHIFSGVMNFQPRRFEGGGMRYLRFKQWLTEMKMTARRIDAVYFEEVRRHVGTDAAHVYGGLLATLTAWCEHHQIPYEGIPVGTIKKETTGKGNASKEEMIKAVCAKGHAPKDDNEADALAILYLMKEGGVYVQ | not soluble |
| MTDNLLSISAACLFDDQGNLLLVRKRGTQAFMLPGGKREPGETPLAALQRELLEELRLPMGASTFEHLGSFQAPAANEANTRVDADIYVARLPHAVCAQAELEELAWLVPGQAQPDNLAPLLRDHVLPALARRAAENPETQAEHRTRPDHVR | not soluble |
| MGSDKIHHHHHHMKVTILLPAYNAALYLRDSLDSIMRQAFKDFDVLLIDDGSMDDTSKIAIEYSNIDRRIKYYKNEKNIGLIKTLNKGLSLAKGEYIVRMDADDIMFDDRLYKQVKYMDSNPECFVCGGQMEYIGGLTGMAPILPQKYEDLLYLSLINCPLYHPTTIIRNSAIKQFGLKYNDSYKHAEDYKFWSDIIFSHPNSIANIKDVVLFYRISNNQITAKYSDEQDLISKIVRRENVQHVLVPYGIKLPEVVNCEIIEKVSSLIRKEHIDAAEILTLVLCMLYMSMENSYVRIKHFILSNDYSLFVKNSSRIKLGLSVLLSGIFSNRGKRFVI | not soluble |
| MVDIEPDRVYVFTPDGHAIDLPKNATPLDFAYRVHTEIGHNCRGAKINGRIVPLNYSLQTGEQVEIITSKHGTPSRDWLEHHHHHH | not soluble |
| MGSDKIHHHHHHMSSTKIIATFNQSGGAAKTTITHNLGYHLAKKHRVLLVDMDPQASLTAFMGLGEVKLQTEQTIYGAIAEETPLYIWEKPIHGMHLVPTNIQLAGTEQKIFHDLTIDNRQRLKFVLSNVLDQYDYILIDCPPSLGILSIMSLVAASHVIIPVETQYKCYLGTNQLLETIARLKKGGHQKLQIACIIPTKYDNRNLQDTGILEEIKQQVEGRIHVTAPIPKSTAFPDATQAHLPLALHKKNHPAVSILEEITKYITQLSVTQGQSH | not soluble |
| MRVDIVPVGDVPAHVKRQASSSLRSVYDCEVVVASEQDVPTAAYDEARSQYRAAEFIDTATRATSGDKTIAITPHDLFYRRRNYVFGLAYLDGRGCVVSTYRLQTSSDGGFSNRSSSDVFDDRVRKEVVHELGHTLGLEHCDNNRCAMNFSPTVREVDRKEENLCGSCQRTVFLEHHHHHH | not soluble |
| MSKQTAIRLPDETYERLKALSERTGRTSAYYIREAIEKHIEDMEDLYLAEEATRRIQRGESKIISAEEFWRDLDN | not soluble |
| GPGSMTDFPKLNRIKSDDENMEKIHVAARKGQTDEVRRLIETGVSPTIQNRFGCTALHLACKFGCVDTAKYLASVGEVHSLWHGQKPIHLAVMANKTDLVVALVEGAKERGQMPESLLNECDEREVNEIGSHVKHCKGQTALHWCVGLGPEYLEMIKILVQLGASPTAKDKADETPLMRAMEFRNREALDLMMDTVPSKSSLRLDYANKQGNSHLHWAILINWEDVAMRFVEMGIDVNMEDNEHTVPLYLSVRAAMVLLTKELLQKTDVFLIQACPYHNGTTVLPDRVVWLDFVPAAADPSKQEVLQLLQEKLDEVVRSLNTGAGGAVKRKKKAAPAVKRMKLAPSAPVRTRSRSRARSSAVSK | soluble |
| MKKNMLRIMATVTIMGGLFVSTNVPNVKAEEYPEMIVFDDVPVNHWAYDDIMDVVYNKVMLGYGNGKFGVGDNVTREQVAAVLYRTLNLKKEGPLKNPYKDISERATFFLDEILVLTKHGIFEGDEKGNFRPAAPVTRAETAQILTKAFTFEVKKNHTFKDVPNNHWAKNAISALQSNHVIVGTGNGKFEPNKVVTREQYATFLNKAVFYFPVKDENYE | not soluble |
| MPRPGKDSYDEQKPPYSYIWLTYMAIQDSDDKMLPLTEIYKYIMDRFPFYRKNTQRWQNSLRHNLSFNDCFIKIPRRADRPGKGSYWAVHPNASGMFENGSCLRRRKRFRARGGQDDDDDDFHHPAPSKISRKNPLPLLPEPPITPPLLSSLFPNLPPSLPNFCLFPPGMDPTKSLLLNPLSLLLMPHFLKNSSNFESSTPHSETSEISGSGSSSSKTPTPEAGFNSSFSIESILSS | not soluble |
| MGSDKIHHHHHHMNLLSLYHFFAGKASDKQKEAIKRWAESSPDNYETLCREKKIFDAGILLVDKKELFQKENAPLLYKLINYTVKIAAVVLLVVVSVTIYKYQELVKKSEVLQTILVPAGQRINIILPDSTFVCLNSNTKFSYPSVFATNNRKVKLDGEAYFEVSANKNKPFYVHTSKGEIKVLGTHFNLEAYSNADVFKTSLFEGKVRVRVKGNNIYLKPDQMVCYHKNGKIHLETIHDYDQFRWREGLICIKSAKLKDIMKTFTKYFGDSIVIQNKEVEHYKYTGKFRQSRGVINALRLLQKDAPFTIEQDEDKQIIYIK | not soluble |
| MKLRSWEFYDRIARAYDSMYETPKWKLYHRLIGSFLEEYLKNPCRVLDLGGGTGKWSLFLQERGFEVVLVDPSKEMLEVAREKGVKNVVEAKAEDLPFPSGAFEAVLALGDVLSYVENKDKAFSEIRRVLVPDGLLIATVDNFYTFLQQMIEKDAWDQITRFLKTQTTSVGTTLFSFNSYAFKPEDLDSLEGFETVDIRGIGVMEYPDERISEREETIFRLEQELSRDRNIIWKADHIFFVLKKKRGA | not soluble |
| MGSDKIHHHHHHMKPIATPDPIIAQAVKLFAERGYAETNLPSIAKAANVAVGTIYRHFKGKEDILNTAFTDIMDYFHDSLADAANCNVSDPESTFSHLFDAAALTMQHYPTELHFIEQNVFNEALRPESRAARDRVTTLISNMLMEGQEHGVIVKADVRTQLAILYGSIVSMIDIVWVQQQLQGHVPDQDQLALELKNQIWNGLTCERSIFQ | not soluble |
| VKVNPSVKPICDKCRLIRRHGRVMVICSDPRHKQRQG | not soluble |
| MGDWIIKLEDVSAGYGKLQTLFDVSLEIPRGLITVIVGPNGAGKSTLLKTMFGFTTVYKGRVLFENTDVTHMPPHDRAKIGMTFIFQLENIFRELTVYENLRLAGYDLPEDVFRDRLEEVFSMFPRLKERLGQKAGTLSGGERQMLAMAIGIMRKPKVFLIDEPTAGLSPKLAKEVLSYVRILNKEGYTVVLVEQNVKASLEIGDKGVLVVNGRIAFDGPAEELLARKDLAKMYLGV | soluble |
| SRMRRYKSYFDWFDRQELHSMFQIAVPSVLQQSTVSIGMMIVQAVVNPFGTQALAGYAATMRVENVFSLIFVSIGNAVSPYVSQNLGANKPQRIKKGYRAA | not soluble |
| GPGSMTSKKAAKEKDEYTPQERLTAAALEYKKLEGHNQSSIERMYGALSSPFRVSNKPCEVPRAAVLRCFEEILGKTNNGENGSTDNLAETTVVGRSISGGNNADGRVLLSSDSRFPSVHRCYDAVLQYESCVVEKTLAQHHSLLAGFEARQLQEAESANEVPKAVASGA | not soluble |
